± gives the uncertainty stated by the source.
B1: Pituitary-specific positive transcription factor 1, residues 130 to 198; numbered along this chain, P28069 (parent)
chain: RELEKFANEFKVRRIKLGYTQTNVGEALAAVHGSEFSQTTICRFENLQLSFKNACKLKAILSKWLEEAE

Variants of: B1
Experiment: abundance fitness (aPCA) (normalised: wild type 0, dead -1); higher = more abundant; growth selection in yeast, the domain comes from the species named
Settings: Homo sapiens

Abundance fitness: each site, then its substitutions
G33: R -0.835 ± 0.098 | S -0.75 ± 0.07 | Y -0.96 ± 0.21 | H -0.536 ± 0.31 | D -0.721 ± 0.16 | F -0.934 ± 0.47 | A -0.555 ± 0.074 | K -0.85 ± 0.28 | E -0.856 ± 0.16 | I -1 ± 0.26 | T -0.892 ± 0.14 | Q -0.212 ± 0.1 | L -1.08 ± 0.12 | M -0.792 ± 0.14
V31: D -0.462 ± 0.1 | K 0.131 ± 0.088 | F -0.34 ± 0.16 | N -0.389 ± 0.078 | G -0.404 ± 0.1 | H -0.574 ± 0.27 | M -0.135 ± 0.09 | Q -0.033 ± 0.067 | E -0.013 ± 0.072 | R -0.053 ± 0.052 | C -0.258 ± 0.097 | S -0.004 ± 0.04 | L -0.058 ± 0.039 | I 0.027 ± 0.073 | P -0.912 ± 0.19 | Y -0.339 ± 0.16 | W -0.392 ± 0.09 | T -0.021 ± 0.068
A29: L -0.829 ± 0.16 | R -0.127 ± 0.063 | I -0.492 ± 0.16 | Q -0.112 ± 0.075 | H -0.079 ± 0.2 | S -0.119 ± 0.069 | P -0.89 ± 0.24 | W -0.932 ± 0.27 | Y -0.609 ± 0.2 | F -0.509 ± 0.12 | C -0.361 ± 0.086 | G -0.416 ± 0.13 | V -0.87 ± 0.31 | N -0.595 ± 0.38 | K -0.202 ± 0.086 | M -0.402 ± 0.11 | T 0.063 ± 0.075
E35: V -0.306 ± 0.055 | H -0.228 ± 0.089 | N -0.165 ± 0.13 | M -0.162 ± 0.071 | G -0.086 ± 0.043 | P -0.381 ± 0.17 | Q -0.059 ± 0.15 | W -0.265 ± 0.1 | D -0.144 ± 0.085 | C -0.182 ± 0.063 | I -0.276 ± 0.07 | F -0.262 ± 0.1 | S -0.051 ± 0.058 | A -0.097 ± 0.065 | R -0.208 ± 0.055 | K -0.23 ± 0.15 | L -0.222 ± 0.045
S34: T -0.139 ± 0.097 | W -0.562 ± 0.39 | Y -0.373 ± 0.086 | K 0.09 ± 0.066 | E 0.019 ± 0.055 | H 0.039 ± 0.23 | L -0.253 ± 0.057 | I -0.171 ± 0.1 | N 0.107 ± 0.15 | R -0.038 ± 0.093 | Q 0.057 ± 0.057 | V -0.084 ± 0.13 | P 0.133 ± 0.07 | A -0.079 ± 0.11 | M -0.188 ± 0.097 | D -0.015 ± 0.14 | C -0.431 ± 0.24 | F -0.387 ± 0.13

From the Human Domainome abundance scans (Beltran et al. 2025)
